Test results from US20220185894A1 (F STAR THERAPEUTICS, published 2022).

T1: human LAG-3 expressed on cells (human, UniProt P18627 23-525)
T1 construct: also called hLAG-3; DO11.10 hLAG-3
T1 sequence: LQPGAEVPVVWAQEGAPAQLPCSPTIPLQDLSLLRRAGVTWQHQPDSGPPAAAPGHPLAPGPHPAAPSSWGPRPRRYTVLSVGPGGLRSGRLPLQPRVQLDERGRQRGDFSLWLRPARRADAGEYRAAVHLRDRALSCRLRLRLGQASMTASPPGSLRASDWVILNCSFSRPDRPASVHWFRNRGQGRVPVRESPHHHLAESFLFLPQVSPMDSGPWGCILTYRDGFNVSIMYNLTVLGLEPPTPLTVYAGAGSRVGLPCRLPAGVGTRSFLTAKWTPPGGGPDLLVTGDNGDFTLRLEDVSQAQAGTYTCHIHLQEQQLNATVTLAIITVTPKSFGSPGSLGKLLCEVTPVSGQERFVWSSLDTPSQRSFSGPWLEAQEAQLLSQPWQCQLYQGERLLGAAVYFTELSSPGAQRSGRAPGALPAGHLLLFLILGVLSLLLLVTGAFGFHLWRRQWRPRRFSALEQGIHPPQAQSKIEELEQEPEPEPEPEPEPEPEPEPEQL

T2: recombinant Fc-tagged human LAG-3 (R&D Systems, 2319-L3-050) (human, UniProt P18627 23-450)
T2 construct: Bought protein; also called LAG-3 Fc; human LAG-3-Fc; not shown: Fc tag of the bought fusion protein
T2 sequence: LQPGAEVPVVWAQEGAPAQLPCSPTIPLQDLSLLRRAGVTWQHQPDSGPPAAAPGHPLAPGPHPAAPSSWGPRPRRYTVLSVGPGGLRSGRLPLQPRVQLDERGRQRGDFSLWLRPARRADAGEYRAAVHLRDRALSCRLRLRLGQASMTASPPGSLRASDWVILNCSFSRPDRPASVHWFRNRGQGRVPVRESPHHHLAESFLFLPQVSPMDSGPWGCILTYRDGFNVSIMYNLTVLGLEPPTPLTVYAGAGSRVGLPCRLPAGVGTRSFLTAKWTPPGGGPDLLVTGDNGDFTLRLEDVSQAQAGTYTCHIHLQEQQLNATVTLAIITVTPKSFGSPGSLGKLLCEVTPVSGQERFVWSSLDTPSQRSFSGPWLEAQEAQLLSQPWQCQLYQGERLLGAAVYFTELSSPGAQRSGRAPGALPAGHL

T3: cynomolgus LAG-3 expressed on cells (cynomolgus monkey, UniProt P18627 24-525 (human entry))
T3 construct: also called cLAG-3; cyno LAG-3
T3 chain: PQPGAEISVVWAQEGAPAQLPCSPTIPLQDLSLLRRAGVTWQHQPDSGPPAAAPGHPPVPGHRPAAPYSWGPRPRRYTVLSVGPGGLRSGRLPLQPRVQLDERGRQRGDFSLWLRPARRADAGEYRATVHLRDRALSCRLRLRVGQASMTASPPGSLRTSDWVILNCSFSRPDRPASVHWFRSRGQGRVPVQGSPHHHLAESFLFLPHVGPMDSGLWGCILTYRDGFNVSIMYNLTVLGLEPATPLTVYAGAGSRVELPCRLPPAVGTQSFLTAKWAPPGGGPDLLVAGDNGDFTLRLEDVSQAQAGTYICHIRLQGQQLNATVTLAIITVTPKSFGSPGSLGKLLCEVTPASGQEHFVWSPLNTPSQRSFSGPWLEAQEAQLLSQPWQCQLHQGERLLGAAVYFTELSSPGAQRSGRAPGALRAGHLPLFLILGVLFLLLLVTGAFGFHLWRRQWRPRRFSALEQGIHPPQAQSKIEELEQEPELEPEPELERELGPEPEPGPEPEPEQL


Tests used:
[1] = biological target: human PD-L1 expressed on cells (human, UniProt Q9NZQ7 19-290); experiment: cell-based or functional assay
[2] = biological target: T1, human LAG-3 expressed on cells; experiment: flow cytometry on HEK cells expressing human LAG-3
Protocol: (§1) The affinity of the mAb² (all containing the LALA mutation) for cell expressed human or cynomolgus LAG-3 was determined using flow cytometry. HEK cells expressing human or cynomolgus LAG-3 grown in DMEM (Life Technologies, 61965-026) containing 10% FBS (Life Technologies, 10270-1-6), 100 μg/ml Hygromycin B (Melford Laboratories Ltd, Z2475), 15 μg/ml Blasticidin (Melford Laboratories Ltd, B1105) and 1 μg/ml Doxycyclin (Sigma, D9891) were detached from tissue culture flasks using cell dissociation buffer (Life Technologies, 13151-014) and seeded in V-bottom 96-well plates (Costar, 3897) at 2×10⁵ cells/well. The plates were centrifuged at 1500 rpm for 3 min at 4° C. to pellet the cells. A dilution series of the mAb² (or control mAb) were incubated with the cells in a 100 μl volume for 1 h at 4° C. The plates were washed and secondary antibody (Anti-human Fc-488, Jackson ImmunoResearch, 109-546-098) was diluted 1:1000 in PBS and 100 μl was added to the cells for 30 min at 4° C. (plates were kept in the dark). The plates were washed and then cells were resuspended in 100 μl PBS containing 1 μg/ml DAPI (Biotium, 40043). The plates were read using Canto II flow cytometer (BD Bioscience). Dead cells were excluded and the fluorescence in the FITC channel (488 nm/530/30) was measured. The data was fit using log (agonist) vs response in GraphPad Prism Software. The plates were read on a BD FACSCanto II cytometer (BD Biosciences) and the data analysed using FlowJo.

[3] = biological target: T2, recombinant Fc-tagged human LAG-3 (R&D …); experiment: SPR, BIAcore T200; mAb2 captured on Protein L, human LAG-3 Fc injected
Protocol: (§2) Protein L (Thermo, 21189) was immobilized on flow cells 1 and 2 of a Series S CM5 chip (GE Healthcare, BR-1005-30) by amine coupling (GE Healthcare, BR-1000-50) to a surface density of 2000 RU by following the manufacturer's instructions for the BIAcore T200 instrument. […] The association time was 3 min and the dissociation time was 6 min. Running buffer was HBS-P (GE Healthcare, BR-1003-68). Both flow cells were regenerated by injecting 10 mM sodium hydroxide (NaOH) at a flow rate of 100 μl/min for 20 seconds. The data were analysed by double referencing against the blank flow cell.
(§3) The binding kinetics were fit with a 1:1 Langmuir model to generate binding association (kₐ) and dissociation (kd) rates. Equilibrium binding constants (KD) were calculated by dividing the dissociation rate by the association rate for each sample. Data analysis was performed with BiaEvaluation software version 3.2.

[4] = biological target: T4, human PD-L1 Fc (R&D Systems, 156-B7) (human, UniProt Q9NZQ7 19-239); experiment: SPR, BIAcore T200; mAb2 captured on Protein L, PD-L1 Fc injected
T4 construct: Bought protein; not shown: Fc tag of the bought fusion protein
Protocol: as §2, §3

[5] = biological target: T3, cynomolgus LAG-3 expressed on cells; experiment: flow cytometry on HEK cells expressing cynomolgus LAG-3
Protocol: as §1

T4 sequence (Q9NZQ7 19-239 limits assumed): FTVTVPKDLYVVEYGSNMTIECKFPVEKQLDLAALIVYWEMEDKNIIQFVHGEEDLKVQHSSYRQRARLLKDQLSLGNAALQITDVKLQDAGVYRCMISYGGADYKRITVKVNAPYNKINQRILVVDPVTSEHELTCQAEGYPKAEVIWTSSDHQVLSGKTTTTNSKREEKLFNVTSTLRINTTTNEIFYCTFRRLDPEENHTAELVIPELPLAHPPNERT
Sequence of human PD-L1 expressed on cells (Q9NZQ7 19-290 limits assumed): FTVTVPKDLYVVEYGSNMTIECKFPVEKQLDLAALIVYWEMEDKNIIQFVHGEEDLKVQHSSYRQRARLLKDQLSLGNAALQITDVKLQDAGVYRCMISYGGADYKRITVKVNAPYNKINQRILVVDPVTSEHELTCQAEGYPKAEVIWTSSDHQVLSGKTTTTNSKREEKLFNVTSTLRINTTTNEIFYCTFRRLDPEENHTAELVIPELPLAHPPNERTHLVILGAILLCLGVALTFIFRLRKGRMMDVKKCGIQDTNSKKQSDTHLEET

Row | Maximal IL2 release calculated as % ctrl (84G09 + 25F7) [1] | EC50 [2] | Kd [3] | koff [3] | kon [3] | Kd [4] | koff [4] | kon [4] | EC50 [5] | fold better binding (EC50) than control antibody 25F7 [5] | Binder
1 | 59% | 4.08 nM | 0.036 nM | 0.0002 s⁻¹ | 5.4e+06 M⁻¹ s⁻¹ | 1.3 nM | 0.00022 s⁻¹ | 170000 M⁻¹ s⁻¹ | 26.4 nM | ≥ 2 fold | anti-human LAG-3/PD-L1 mAb2 FS18-7-62/84G09 with LALA mutation (bispecific antibody, human IgG1, kappa, L234A L235A, also called FS18-7-62/84G09LALA; F518-7-62/84G09LALA) heavy: EVQLVESGGGLVQPGRSLRLSCAASGFTFDDYAMHWVRQTPGKGLEWVSGISWKSNIIGYADSVKGRFTISRDNAKNSLYLQMNSLRAEDTALYYCARDITGSGSYGWFDPWGQGTLVTVSSASTKGPSVFPLAPSSKSTSGGTAALGCLVKDYFPEPVTVSWNSGALTSGVHTFPAVLQSSGLYSLSSVVTVPSSSLGTQTYICNVNHKPSNTKVDKKVEPKSCDKTHTCPPCPAPEAAGGPSVFLFPPKPKDTLMISRTPEVTCVVVDVSHEDPEVKFNWYVDGVEVHNAKTKPREEQYNSTYRVVSVLTVLHQDWLNGKEYKCKVSNKALPAPIEKTISKAKGQPREPQVYTLPPSWDEPWGEDVSLTCLVKGFYPSDIAVEWESNGIPEWNYKTTPPVLDSDGSFFLYSKLTVPYDRWVWPDEFSCSVMHEALHNHYTQKSLSLSPG light: DIQMTQSPSSLSASVGDRVTITCRASQSISSYLNWYQQKPGKAPKPLIYVASSLQSGVPSSFSGSGSGTDFTLTISSLQPEDFATYYCQQSYSNPITFGQGTRLEIKRTVAAPSVFIFPPSDEQLKSGTASVVCLLNNFYPREAKVQWKVDNALQSGNSQESVTEQDSKDSTYSLSSTLTLSKADYEKHKVYACEVTHQGLSSPVTKSFNRGEC
2 | 64.4% | 2.53 nM | 0.029 nM | 0.00014 s⁻¹ | 4.8e+06 M⁻¹ s⁻¹ | 1 nM | 0.0001 s⁻¹ | 100000 M⁻¹ s⁻¹ | 24.8 nM | ≥ 2 fold | anti-human LAG-3/PD-L1 mAb2 FS18-7-78/84G09 with LALA mutation (bispecific antibody, human IgG1, kappa, L234A L235A, also called FS18-7-78/84G09 LALA; FS18-7-78/84G09LALA) heavy: EVQLVESGGGLVQPGRSLRLSCAASGFTFDDYAMHWVRQTPGKGLEWVSGISWKSNIIGYADSVKGRFTISRDNAKNSLYLQMNSLRAEDTALYYCARDITGSGSYGWFDPWGQGTLVTVSSASTKGPSVFPLAPSSKSTSGGTAALGCLVKDYFPEPVTVSWNSGALTSGVHTFPAVLQSSGLYSLSSVVTVPSSSLGTQTYICNVNHKPSNTKVDKKVEPKSCDKTHTCPPCPAPEAAGGPSVFLFPPKPKDTLMISRTPEVTCVVVDVSHEDPEVKFNWYVDGVEVHNAKTKPREEQYNSTYRVVSVLTVLHQDWLNGKEYKCKVSNKALPAPIEKTISKAKGQPREPQVYTLPPSWDEPWGEDVSLTCLVKGFYPSDIAVEWESNGYKEENYKTTPPVLDSDGSFFLYSKLTVPYDRWVWPDEFSCSVMHEALHNHYTQKSLSLSPG light: DIQMTQSPSSLSASVGDRVTITCRASQSISSYLNWYQQKPGKAPKPLIYVASSLQSGVPSSFSGSGSGTDFTLTISSLQPEDFATYYCQQSYSNPITFGQGTRLEIKRTVAAPSVFIFPPSDEQLKSGTASVVCLLNNFYPREAKVQWKVDNALQSGNSQESVTEQDSKDSTYSLSSTLTLSKADYEKHKVYACEVTHQGLSSPVTKSFNRGEC
